Measurements as given in the supplement of paper PMC12783771.
± gives the standard deviation of the averaged measurements.

B1: library; numbered along this chain (parent)
chain: MNIQIGELAKRTACPVVTIRFYEQEGLLPPPGRSRGNFRLYGEEHVERLQFIRHCRSLDMPLSDVRTLLSYRKRPDQDCGEVNMLLDEHIRQVESRIGALLELKHHLVELREACSGARPAQSCGILQGLSDCVCDTRGTTAHPSD

What was measured:
[1] = variants of: B1; assay: sfGFP reporter fluorescence (15 h) (µM FITC); higher = higher leak; settings: library round: Round 0; ligand: none
Outline: (§1)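 With 1 µM lead chloride, 30 µM zinc acetate or no metal present, 1 μL Echo-assembled reactions were incubated 15 hr at 30 °C. They contained BL21 Star (DE3) PANOx-SP extract, 30 μg/mL GamS, the pPbrR-sfGFP reporter plasmid and PCR-made linear PbrR templates Echo-normalized to 5 nM. Endpoint sfGFP fluorescence was read on a Synergy Neo2 at 485/528 nm against FITC standards in 50 mM sodium borate pH 8.5. Results are expressed as µM FITC.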

[2] = variants of: B1; assay: sfGFP reporter fluorescence (15 h) (µM FITC); higher = stronger transcriptional activation; settings: library round: Round 0
Outline: as §1

Variant | sfGFP reporter fluorescence [1] | sfGFP reporter fluorescence ([2]; ligand: 1 µM Pb) | sfGFP reporter fluorescence ([2]; ligand: 30 µM Zn)
L85K | 0.0585 ± 0.0029 | 0.0566 ± 0.00078 | 0.0645 ± 0.001
L85A | 0.05864 ± 0.00052 | 0.0559 ± 0.0023 | 0.07183 ± 0.00052
L107A | 0.514 ± 0.0098 | 1.97 ± 0.12 | 2.84 ± 0.79
C79R | 0.06011 ± 0.00052 | 0.0629 ± 0.0018 | 0.059 ± 0.001
C79G | 0.0553 ± 0.0021 | 0.0552 ± 0.0013 | 0.0522 ± 0.0013
C79L | 0.0555 ± 0.0023 | 0.0553 ± 0.0021 | 0.05498 ± 0.00052
C79S | 0.0592 ± 0.0018 | 0.059 ± 0.001 | 0.055
C79F | 0.055 ± 0.0026 | 0.0574 ± 0.0013 | 0.0546 ± 0.0015
V108M | 0.05662 ± 0.00026 | 0.0682 ± 0.0026 | 0.583 ± 0.019
V108C | 0.0594 ± 0.0026 | 0.0788 ± 0.0015 | 1.04 ± 0.091
D87A | 0.0596 ± 0.0049 | 0.0652 ± 0.0015 | 0.393 ± 0.011
V16R | 0.0671 ± 0.001 | 0.132 ± 0.0057 | 2.03 ± 0.3
V16E | 0.06341 ± 0.00052 | 0.0762 ± 0.001 | 0.986 ± 0.046
V16A | 0.059 ± 0.0015 | 0.0729 ± 0.0015 | 1.06 ± 0.1
C55L | 0.0608 ± 0.001 | 0.0702 ± 0.0013 | 0.173 ± 0.0091
I19A | 0.0577 ± 0.0013 | 0.0592 ± 0.00078 | 0.08063 ± 0.00052
Y22C | 0.0614 ± 0.0044 | 0.0623 ± 0.00052 | 0.05919 ± 0.00026
Y22A | 0.06029 ± 0.00026 | 0.0557 ± 0.0021 | 0.0634 ± 0.001
Y22G | 0.0594 ± 0.0031 | 0.05846 ± 0.00026 | 0.0605 ± 0.0015
Y22E | 0.06157 ± 0.00052 | 0.0621 ± 0.0013 | 0.06011 ± 0.00052
E43T | 0.06341 ± 0.00052 | 0.104 ± 0.0054 | 1.5 ± 0.14
E43M | 0.0597 ± 0.0047 | 0.099 ± 0.0047 | 1.33 ± 0.083
E43Y | 0.0599 ± 0.00078 | 0.0924 ± 0.017 | 1.2 ± 0.058

Variant | sfGFP reporter fluorescence [1] | sfGFP reporter fluorescence ([2]; ligand: 1 µM Pb) | sfGFP reporter fluorescence ([2]; ligand: 30 µM Zn)
E43I | 0.05186 ± 0.00026 | 0.0806 ± 0.0093 | 1.11 ± 0.078
V93A | 0.0585 ± 0.0013 | 0.0579 ± 0.0031 | 0.128 ± 0.0062
L58G | 0.0548 ± 0.00078 | 0.0548 ± 0.0013 | 0.052 ± 0.001
L58W | 0.0629 ± 0.0034 | 0.0685 ± 0.0026 | 0.076 ± 0.0023
L58K | 0.0629 ± 0.0013 | 0.06908 ± 0.00026 | 0.0735 ± 0.0034
L126N | 0.05901 ± 0.00052 | 0.05882 ± 0.00026 | 0.05333 ± 0.00026
L126S | 0.0592 ± 0.0018 | 0.0585 ± 0.00078 | 0.05443 ± 0.00026
L126H | 0.0603 ± 0.0018 | 0.0588 ± 0.00078 | 0.0552 ± 0.006
L126F | 0.05699 ± 0.00026 | 0.0583 ± 0.001 | 0.0586 ± 0.0021
L126C | 0.059 ± 0.0036 | 0.0572 ± 0.001 | 0.0563 ± 0.0029
L126D | 0.0597 ± 0.0021 | 0.0581 ± 0.00078 | 0.0544 ± 0.0029
S70A | 0.0678 ± 0.0052 | 0.072 ± 0.0054 | 0.281 ± 0.061
Q127A | 0.0724 ± 0.0018 | 0.0793 ± 0.0049 | 0.299 ± 0.047
I125H | 0.0601 ± 0.0031 | 0.06011 ± 0.00052 | 0.057 ± 0.0023
I125L | 0.055 ± 0.001 | 0.05717 ± 0.00052 | 0.05552 ± 0.00026
I125F | 0.0553 ± 0.001 | 0.0579 ± 0.0021 | 0.05259 ± 0.00026
I125N | 0.0581 ± 0.00078 | 0.0581 ± 0.00078 | 0.055 ± 0.0015
I125K | 0.0599 ± 0.0029 | 0.05864 ± 0.00052 | 0.0564 ± 0.0031
M60L G128M | 0.939 ± 0.012 | 2.69 ± 0.78 | 4.69 ± 0.071
I97P | 0.0542 ± 0.0036 | 0.0561 ± 0.001 | 0.135 ± 0.0036
I97F | 0.0535 ± 0.0042 | 0.0592 ± 0.0029 | 0.278 ± 0.036
I97G | 0.0555 ± 0.0013 | 0.0603 ± 0.0013 | 0.404 ± 0.014
I97W | 0.0585 ± 0.006 | 0.0616 ± 0.0015 | 0.176 ± 0.0073

Variant | sfGFP reporter fluorescence [1] | sfGFP reporter fluorescence ([2]; ligand: 1 µM Pb) | sfGFP reporter fluorescence ([2]; ligand: 30 µM Zn)
I97E | 0.0574 ± 0.0044 | 0.0618 ± 0.0018 | 0.386 ± 0.055
F51A | 0.06597 ± 0.00052 | 0.0621 ± 0.0023 | 0.16 ± 0.0083
C123Y | 0.0586 ± 0.0015 | 0.0579 | 0.0546 ± 0.0026
C123H | 0.0588 ± 0.0018 | 0.05901 ± 0.00052 | 0.0561 ± 0.0021
P61N D64K K104V | 0.26 ± 0.0026 | 0.752 ± 0.037 | 2.41 ± 0.1
M60L P61N D64K L107C | 3.0399 ± 0.0023 | 4.3 ± 0.33 | 4.24 ± 0.28
P61N D64K L107C G128M | 4.78 ± 0.1 | 5.3 ± 0.14 | 4.84 ± 0.18
V46N | 0.0535 ± 0.0021 | 0.0665 ± 0.0096 | 0.108 ± 0.0023
V46D | 0.0581 ± 0.0034 | 0.0612 ± 0.0015 | 0.0735 ± 0.0013
V46A | 0.0619 ± 0.0031 | 0.0757 ± 0.0023 | 0.682 ± 0.097
V46K | 0.0599 ± 0.00078 | 0.0922 ± 0.0023 | 0.908 ± 0.097
V46S | 0.055 ± 0.0021 | 0.0687 ± 0.00078 | 0.306 ± 0.059
V46T | 0.057 ± 0.0013 | 0.07733 ± 0.00052 | 0.419 ± 0.0078
G6Y | 0.0603 ± 0.0034 | 0.0608 ± 0.001 | 0.066
G6F | 0.0592 ± 0.0018 | 0.06029 ± 0.00026 | 0.0629 ± 0.00078
G6M | 0.0603 ± 0.0013 | 0.0586 ± 0.001 | 0.0654 ± 0.0034
F21H | 0.0596 ± 0.0018 | 0.0629 ± 0.0023 | 0.276 ± 0.0091
F21I | 0.0597 | 0.0575 ± 0.0031 | 0.0607 ± 0.0018
F21Q | 0.0605 | 0.05827 ± 0.00052 | 0.0625 ± 0.00078
M60L P61N K104V | 0.153 ± 0.0062 | 0.413 ± 0.017 | 1.56 ± 0.039
E112A | 0.063 ± 0.0021 | 0.0929 ± 0.0039 | 1.31 ± 0.092
E112L | 0.0603 ± 0.00078 | 0.0867 ± 0.0034 | 0.851 ± 0.048
E112N | 0.06212 ± 0.00026 | 0.079 ± 0.0029 | 1.04 ± 0.13

Variant | sfGFP reporter fluorescence [1] | sfGFP reporter fluorescence ([2]; ligand: 1 µM Pb) | sfGFP reporter fluorescence ([2]; ligand: 30 µM Zn)
E112S | 0.0673 ± 0.00078 | 0.1083 ± 0.00078 | 1.9 ± 0.14
E112T | 0.0605 | 0.0804 ± 0.0029 | 0.857 ± 0.06
N83C | 0.0601 ± 0.0021 | 0.114 ± 0.016 | 0.0649 ± 0.0015
N83L | 0.0585 ± 0.0018 | 0.07 ± 0.0088 | 0.0575 ± 0.0031
N83P | 0.05772 ± 0.00026 | 0.0579 ± 0.001 | 0.0552 ± 0.0023
N83K | 0.0603 ± 0.0034 | 0.0663 ± 0.0015 | 0.07532 ± 0.00026
N83I | 0.0561 ± 0.0015 | 0.0718 ± 0.001 | 0.055 ± 0.001
R33I | 0.05772 ± 0.00026 | 0.05662 ± 0.00026 | 0.06542 ± 0.00026
R33L | 0.0605 ± 0.001 | 0.06175 ± 0.00026 | 0.108 ± 0.0042
R33K | 0.064 ± 0.0013 | 0.0634 ± 0.0042 | 0.112 ± 0.0065
R33M | 0.0629 ± 0.0013 | 0.0625 ± 0.0013 | 0.0619 ± 0.0015
R33N | 0.0632 ± 0.00078 | 0.0817 ± 0.028 | 0.06084 ± 0.00052
G116A | 0.0597 | 0.0581 ± 0.0023 | 0.18 ± 0.063
V82K | 0.0601 ± 0.0021 | 0.0566 ± 0.0039 | 0.0563 ± 0.0039
V82D | 0.057 ± 0.0044 | 0.0597 | 0.055
V82T | 0.0588 ± 0.0013 | 0.059 ± 0.0021 | 0.0583 ± 0.0057
V82H | 0.0594 ± 0.0015 | 0.05974 ± 0.00052 | 0.0586 ± 0.001
V82S | 0.0592 ± 0.0023 | 0.057 ± 0.0018 | 0.05552 ± 0.00026
P61N D64K K104V G128I | 0.32 ± 0.048 | 0.989 ± 0.27 | 2.48 ± 0.29
R39E | 0.0614 ± 0.0013 | 0.0634 | 0.066 ± 0.0015
